Reference: patent publication US8507656B2, “Stabilized angiopoietin-2 antibodies and uses thereof” (MedImmune Limited, priority 2008, dated 2013)
Entries after “also recorded” stand apart in the source; their conditions may differ.

Key:
[1] = target: Tie2 (Homo sapiens, UniProt Q02763); details: Maisonpierre et al., Science 277:55-60 (1997); read-out: affinity (Kd) for Tie2; cited from earlier work
[2] = test system: H460 xenograft tumors; assay type: in vivo; details: 3.19.3 10 mg/kg 2×wk i.p., AZD4877 10 mg/kg q4dx2 i.p., combination of both
Procedure: The anti-tumor activity of 3.19.3 was evaluated in combination with AZD4877 in the
H460 xenograft model of lung cancer. H460 cells were cultured in flasks as routine until the cells reached sub-confluence. Cell suspensions containing approximately 3×10E6 cells were injected subcutaneously into the right flank of male NCr nu/nu mice. When the tumor volume reached 200 mm^3, the mice were randomized in treatment groups of 8-10 mice and the treatments were initiated. 3.19.3 (10 mg/kg) in saline was injected intraperitoneally, twice per week for 2 weeks. AZD4877 (10 mg/kg) was administered by intraperitoneal administration following a q4d schedule. The dimensions of each tumor and body weights were measured at least twice per week. The volume of the tumor was calculated as: Volume=Length×(Width)×0.5 (cm^3).

[3] = test system: glucose 6 phosphate isomerase (G6PI) arthritis; test: G6PI arthritis disease model, prophylactic; assay type: in vivo, male DBA/1J mice; details: for clinical signs of disease progression (arthritic score) (in words): single agents
[4] = test system: glucose 6 phosphate isomerase (G6PI) arthritis; test: G6PI arthritis disease model, therapeutic; assay type: in vivo, male DBA/1J mice; details: after onset of clinical disease, MEDI1/5 alone, etanercept both doses
Procedure: The effect of treatment with MEDI 1/5 with or without etanercept was evaluated following onset of clinical disease in the glucose 6 phosphate isomerase (G6PI) arthritis disease model. G6PI-induced arthritis was induced in male DBA/1J mice and animals dosed therapeutically with test treatments.
Materials and Methods: The mice in this study were prepared similarly as presented in Example 12.
Dosing: This was a rolling admissions study: once an animal reached a clinical score of 3.5 to 5.0, it was randomly assigned to treatment groups (as outlined below) and dosing began. The day of initial dosing became study day 0 for that animal. Treatment groups were similar to those presented in Example 12.
Termination: Study was terminated 12 days post treatment initiation. No further endpoints were assessed on these animals.

[5] = target: T1, Ang-2 (Homo sapiens, UniProt O15123); test: Competitive Tie-2 Fc/Ang2 ELISA; assay type: binding; details: competition with immobilized Tie-2; IgG1 or IgG2 format
T1 construct: purchased R & D Systems
T1 sequence (O15123 19-496): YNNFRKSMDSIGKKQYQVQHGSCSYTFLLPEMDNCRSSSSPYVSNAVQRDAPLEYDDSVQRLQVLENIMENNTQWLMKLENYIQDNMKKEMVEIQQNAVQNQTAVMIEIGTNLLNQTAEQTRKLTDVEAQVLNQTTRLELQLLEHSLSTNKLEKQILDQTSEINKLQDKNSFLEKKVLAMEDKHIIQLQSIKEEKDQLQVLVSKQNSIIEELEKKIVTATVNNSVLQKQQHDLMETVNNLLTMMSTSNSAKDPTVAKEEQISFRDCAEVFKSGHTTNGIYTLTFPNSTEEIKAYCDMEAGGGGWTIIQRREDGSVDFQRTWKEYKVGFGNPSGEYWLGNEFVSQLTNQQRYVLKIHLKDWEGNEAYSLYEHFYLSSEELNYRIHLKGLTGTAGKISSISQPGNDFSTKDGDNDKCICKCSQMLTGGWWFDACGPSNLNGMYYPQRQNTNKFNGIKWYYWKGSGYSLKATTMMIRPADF
Procedure: In this example the Ang-2 antibody, 3.19.3, and a modified 3.19.3 antibody comprising a C49T (MEDI1/5) substitution were analyzed for Ang-2 binding in a competitive ELISA format assay.
Competitive Tie-2 Fc/Ang2 ELISA: Maxisorp ELISA plates (Nunc, Rochester, N.Y.) were coated with 100 μl of 4 μg/ml Tie-2 Fc (R & D Systems, Minneapolis, Minn.) in 0.1M carbonate buffer pH 9.4 (Pierce, Rockford, Ill.) and incubated overnight at 4° C. The following day, plates were blocked for 1 hour at room temperature with 200 μl of phosphate buffered saline (PBS) (Invitrogen, Carlsbad, Calif.) containing 0.5% bovine serum albumin (BSA) (Sigma, St. Louis, Mo.) and 0.1% Tween-20 (Sigma, St. Louis, Mo.). Plates were washed 3 times with wash buffer (PBS containing 0.05% Tween-20). 50 μl of 11-point serial tertiary dilutions (30 μg/ml high concentration) of 3.19.3 or modified anti-Ang2 antibody were plated, with PBS as a negative control. For antibody capture, 50 μl of 200 ng/ml Biotin Ang2 (R & D Systems, Minneapolis, Minn.) were added and plates were incubated for 2 hours at room temperature. Plates were washed 3 times with wash buffer. Following the wash, 100 ul of 1:5000 streptavidin HRP (Pierce, Rockford, Ill.) dilution in wash buffer were added and incubated for 1 hour at room temperature. […] Optical densities were measured at 450 nm with a microplate reader (Molecular Devices, Sunnyvale, Calif.).

[6] = test system: retinal angiogenesis; test: Retinal vascularization in mouse pups; assay type: in vivo, CD1 pups
Procedure: […] At p10, pups were anesthetized with isoflurane and then perfused with 12.5 mg/ml FITC-dextran (Vector Labs). A small slit was made in the cornea and the entire eye was removed from the optic cup before placing into 10% neutral buffered formalin. After 1 hour fixation in formalin, eyes were briefly rinsed in PBS and then placed in a dish of PBS for dissection. Retinas were carefully dissected and cut into a clover leaf formation prior to mounting onto a glass slide with Vectashield (Vector Labs). Images of flatmounts were examined and acquired using fluorescence microscopy (Nikon) with attached digital camera system.

[7] = test system: FGF2 mediated angiogenesis; test: FGF2-induced Matrigel plug assay; assay type: in vivo, athymic mouse
Procedure: The anti-Ang-2 antibody, MEDI1/5 was evaluated for anti-angiogenic effects in a FGF2 (basic FGF)-induced Matrigel™ plug assay. Recombinant murine FGF2 (rmFGF basic; R&D Systems) was pre-mixed with Matrigel™ (reduced growth factor, phenol red-free; Trevigen) at 1 μg/ml. Each 5-6 week old female athymic mouse was subcutaneously implanted with 500 gl of FGF2/Matrigel™ mixture. Antibody MEDI1/5 was administered 10 minutes prior to FGF2/Matrigel™ implantation and continued every three days given intraperitoneal at 1, 10, and 20 mg/kg for a total of 3 doses. The extent of angiogenesis was assessed after 10 days by measuring dextran functioning vessels. Mice were intervenously injected with 100 gl FITC-Dextran (250,000MW; Sigma) at 25 mg/ml in saline. Twenty minutes post FITC-Dextran injection, mice are humanely euthanized and plugs dissected out. Plugs are then placed in lysing matrix tubes A (MP Biomedicals) containing 1 ml of PBS and homogenized on FastPrep machine (MP Biomedicals) for 60 seconds at 6.0 M/S. Samples were then centrifuged at 10,000 rpm for 5 minutes and supernatant collected. 200 μl of each sample (in duplicates) was then placed into a white, clear bottom 96 well plate and FITC output was read on EnVision instrument (Perkin Elmer).
For histology purposes, plugs were harvested and placed into 10% neutral-buffered formalin, processed and then paraffin embedded. The paraffin embedded tissues were then sectioned and stained with hematoxylin and eosin.

Sequence of Tie2 (Q02763 23-1124, species assumed): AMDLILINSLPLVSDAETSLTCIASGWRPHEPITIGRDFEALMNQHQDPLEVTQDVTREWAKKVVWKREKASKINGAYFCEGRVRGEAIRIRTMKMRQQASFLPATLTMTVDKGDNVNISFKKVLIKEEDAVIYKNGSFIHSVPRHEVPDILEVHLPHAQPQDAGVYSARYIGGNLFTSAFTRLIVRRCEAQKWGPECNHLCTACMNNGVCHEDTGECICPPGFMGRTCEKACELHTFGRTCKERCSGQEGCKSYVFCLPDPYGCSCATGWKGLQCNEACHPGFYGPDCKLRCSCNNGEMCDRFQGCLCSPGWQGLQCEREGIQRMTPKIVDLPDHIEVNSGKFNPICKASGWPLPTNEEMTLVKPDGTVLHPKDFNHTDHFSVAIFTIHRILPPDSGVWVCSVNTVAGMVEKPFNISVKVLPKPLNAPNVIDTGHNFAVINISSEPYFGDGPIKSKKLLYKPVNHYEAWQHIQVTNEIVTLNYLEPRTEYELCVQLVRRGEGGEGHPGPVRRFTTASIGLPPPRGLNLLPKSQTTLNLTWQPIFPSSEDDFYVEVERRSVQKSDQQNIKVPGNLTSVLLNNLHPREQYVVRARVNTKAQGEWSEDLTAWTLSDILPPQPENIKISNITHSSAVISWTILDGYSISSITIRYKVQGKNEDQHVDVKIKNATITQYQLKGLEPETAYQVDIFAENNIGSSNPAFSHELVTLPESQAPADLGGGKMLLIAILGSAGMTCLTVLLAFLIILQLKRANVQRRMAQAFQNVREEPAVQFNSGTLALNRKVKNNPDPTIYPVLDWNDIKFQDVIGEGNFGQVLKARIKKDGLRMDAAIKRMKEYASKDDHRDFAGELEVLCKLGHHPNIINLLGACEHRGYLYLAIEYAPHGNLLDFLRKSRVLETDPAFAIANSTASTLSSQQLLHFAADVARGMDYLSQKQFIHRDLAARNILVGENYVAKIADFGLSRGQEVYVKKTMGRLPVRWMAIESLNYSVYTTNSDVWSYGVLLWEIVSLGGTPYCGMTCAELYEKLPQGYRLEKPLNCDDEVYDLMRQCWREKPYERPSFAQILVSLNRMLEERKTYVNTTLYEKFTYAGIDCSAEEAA

## Ang-2: angiopoietin, ligand of Tie2; antigen of the antibodies
[1]
  Kd: 3 nM

## Cc1ccc(C(=O)N(CCCN)C(c2nc3snc(C)c3c(=O)n2Cc2ccccc2)C(C)C)cc1 (centres unmarked) [AZD4877]
[2]
  % tumor growth inhibition: 50%

## etanercept
[3]; 1 mg/kg etanercept, 1 mg/kg
  % Disease free joints: 22%
[3]; 4 mg/kg etanercept, 4 mg/kg
  % Disease free joints: 53%
[3]; 4 mg/kg etanercept, listed as enbrel, 4 mg/kg
  % Disease free joints: 53%
[3]
  clinical signs of disease progression (arthritic score) (in words): Reductions in clinical signs of disease progression; also recorded: reduction
[4]
  clinical signs of disease progression (arthritic score) (in words): no effect on disease progression

B1: Ang-1: angiopoietin, ligand of Tie2 (protein, UniProt Q15389 16-498, looked up)
Angiopoietin-1: HIGCSNQRRSPENSGRRYNRIQHGQCAYTFILPEHDGNCRESTTDQYNTNALQRDAPHVEPDFSSQKLQHLEHVMENYTQWLQKLENYIVENMKSEMAQIQQNAVQNHTATMLEIGTSLLSQTAEQTRKLTDVETQVLNQTSRLEIQLLENSLSTYKLEKQLLQQTNEILKIHEKNSLLEHKILEMEGKHKEELDTLKEEKENLQGLVTRQTYIIQELEKQLNRATTNNSVLQKQQLELMDTVHNLVNLCTKEGVLLKGGKREEEKPFRDCADVYQAGFNKSGIYTIYINNMPEPKKVFCNMDVNGGGWTVIQHREDGSLDFQRGWKEYKMGFGNPSGEYWLGNEFIFAITSQRQYMLRIELMDWEGNRAYSQYDRFHIGNEKQNYRLYLKGHTGTAGKQSSLILHGADFSTKDADNDNCMCKCALMLTGGWWFDACGPSNLNGMFYTAGQNHGKLNGIKWHYFKGPSYSLRSTTMMIRPLDF
[1]
  Kd: 3 nM

B2: MEDI1/5: anti-Ang-2 antibody with MEDI1 light chain (SEQ ID No. 3) and MEDI5 heavy chain (SEQ ID No. 7); isotype not stated (antibody)
VH: QVQLVESGGGVVQPGRSLRLSCAASGFTFTNYGMHWVRQAPGKGLEWVAVISHDGNNKYYVDSVKGRFTISRDNSKNTLYLQMNSLRAEDTAVYYCAREGIDFWSGLNWFDPWGQGTLVTVSS
light: EIVLTQSPGTLSLSPGERATLSCRASQSITGSYLAWYQQKPGQAPRLLITGASSWATGIPDRFSGSGSGTDFTLTISRLEPEDFAVYYCQQYSSSPITFGQGTRLEIKRTVAAPSVFIFPPSDEQLKSGTASVVCLLNNFYPREAKVQWKVDNALQSGNSQESVTEQDSKDSTYSLSSTLTLSKADYEKHKVYACEVTHQGLSSPVTKSFNRGEC
[5]
  binding profile for Ang-2 compared to 3.19.3 (in words): very similar binding profile
[6]; MEDI1/5 0.3 mg/kg
  extent of retina vasculature (in words): extend to the outer edge of retina
[6]; MEDI1/5 0.3, 1.0 and 10 mg/kg i.p. at p1, p3, p5, retinas at p10
  retinal angiogenesis (in words): dose-dependent inhibition of retinal angiogenesis; also recorded: inhibited in a dose-dependent fashion
[7]; FGF2+MEDI1/5 plugs vs FGF2 plugs alone
  vessels in plugs, hematoxylin and eosin staining (in words): fewer vessels; also recorded: lower level of vascularization
[7]; MEDI1/5 1, 10, and 20 mg/kg i.p., 3 doses, FGF2 1 μg/ml plugs (FGF2 alone approximately 0.78 μg)
  amount of FITC-dextran present in plugs: 0.05 to 3 µg
[7]; MEDI1/5 1, 10 or 20 mg/kg i.p., vs FGF2 plugs
  FITC-dextran content / angiogenesis in plugs (in words): significant reduction in FITC-dextran; also recorded: significant reduction in angiogenesis
[3]; 10 mg/kg MEDI1/5, 10 mg/ml Isotype control (so in the source), 10 mg/kg
  % Disease free joints: 31%
[3]
  clinical signs of disease progression (arthritic score) (in words): Reductions in clinical signs of disease progression; also recorded: reduction
[4]
  clinical signs of disease progression (arthritic score) (in words): modest reductions in clinical signs of disease progression
